The target in assay [1] is human neuronal calcium channel α1B-2α2bβ1-3 (human).
For assay [2] the target is unchanged. The assay can be described thus: saturation binding of 125I-ω-CgTx GVIA to transiently transfected HEK293 cells.
Assay [3] has as its target human neuronal calcium channel α1B-1 subunit (human).

For orientation: Kd means the concentration at which binding is half-saturated.

B1: 125I-ω-CgTx GVIA, P01522 46-72 (peptide)
peptide: CKSPGSSCSPTSYNCCRSCNPYTKRCY
modifications: not checked
On to B1, for which, in assay [1], the fold binding capacity against α1B-2α2bβ1-2 was 2 fold and the fold surface receptor density against α1B-2β1-3 was 13 fold. Also, in assay [2], the Bmax (sites/cell) was 37700 sites/cell and the Kd stood at 44.3 pM. Also, in assay [3], the Bmax (sites/cell) turned out to be 757 sites/cell and the Kd turned out to be 31.7 pM.

For the origin of these results see patent US7063950.
